Assay [1] concerns the target T1, Botulinum neurotoxin serotype A light chain protease (BoNT/A-LC), YS2H bait fused to Aga2 with C-terminal … (yeast, UniProt P0DPI0 1-448).
T1 construct: range 1-448
The assay can be described thus: predicted from YS2H (flow cytometry of Myc and FLAG tags, Langmuir equation).

The target in assay [2] is T2, Botulinum neurotoxin serotype A light chain protease (BoNT/A-LC), soluble, hexahistidine tags at both termini (UniProt P0DPI0 1-448).
T2 construct: range 1-448
The assay can be described thus: SPR (Biacore), G6 compared with B8 on A-LC.

Assay [3] concerns the target T2, Botulinum neurotoxin serotype A light …. As to the kind of experiment: SPR (Biacore), A-LC injected over G6-coated chip.
For assay [4] the target is unchanged. The assay can be described thus: SPR (Biacore), A-LC injected over G6-coated chip. The source holds these as a separate data set.
The target is the same in assay [5]. As to the kind of experiment: SPR (Biacore), A-LC injected over B8-coated chip.
Assay [6] has the same target. As to the kind of experiment: SPR (Biacore), A-LC injected over B8-coated chip. This is another data set of the same source.

B1: VHH-G6, secreted YS2H prey with C-terminal Myc tag (VHH)
VHH: HVQLQQSGGGLVQPGGSLRLSCAASGFTLDYYAIGWFRQAPGKEREGVSCISSSGGSTYYADSVKGRFTISRDNAKNTVYLQMNSLKPEDTAVYYCAVAQSCLRGGVRGGYWGQGTQVTVSS
On to B1, for which the Kd in assay [1] was 143 nM.

B2: VHH-G6, soluble, from E. coli (pET20b) (VHH)
VHH: HVQLQQSGGGLVQPGGSLRLSCAASGFTLDYYAIGWFRQAPGKEREGVSCISSSGGSTYYADSVKGRFTISRDNAKNTVYLQMNSLKPEDTAVYYCAVAQSCLRGGVRGGYWGQGTQVTVSS
Take B2: in assay [2], the “fold difference in affinity against B8” value is 100 fold, the “fold difference in association rate against B8” value came to 3 fold and the “fold difference in dissociation rate against B8” value was 34 fold. In assay [3], this molecule gave a koff of 0.0182 s⁻¹ and a kon of 76100 M⁻¹ s⁻¹. Binding in assay [4] was characterised by a dissociation constant (Kd) of 230 nM.

B3: VHH-B8, secreted YS2H prey with C-terminal Myc tag (VHH)
VHH: HVQLQQSGGGLVQPGGSLRLSCAASGSIFSIYAMGWYRQAPGKQRELVAAISSYGSTNYADSVKGRFTISRDNAKNTVYLQMNSLKPEDTAVYYCNADIATMTAVGGFDYWGQGTQVTVSS
B3: in assay [1], the Kd is 38.2 nM.

B4: VHH-B8, soluble, from E. coli (pET20b) (VHH)
VHH: HVQLQQSGGGLVQPGGSLRLSCAASGSIFSIYAMGWYRQAPGKQRELVAAISSYGSTNYADSVKGRFTISRDNAKNTVYLQMNSLKPEDTAVYYCNADIATMTAVGGFDYWGQGTQVTVSS
For the molecule B4, in assay [5], the dissociation rate constant (koff) stood at 0.000518 s⁻¹ and the kon was determined as 226000 M⁻¹ s⁻¹. In assay [6], binding was put at a Kd of 2.3 nM.

The values above are taken from patent US20100075326A1 (CORNELL UNIVERSITY, published 2010).
